In IntAct's records for PubMed 31515488:

B1: Serine/threonine-protein kinase PAK 6 (Homo sapiens), Q9NQU5 (parent)
chain: MFRKKKKKRPEISAPQNFQHRVHTSFDPKEGKFVGLPPQWQNILDTLRRPKPVVDPSRITRVQLQPMKTVVRGSAMPVDGYISGLLNDIQKLSVISSNTLRGRSPTSRRRAQSLGLLGDEHWATDPDMYLQSPQSERTDPHGLYLSCNGGTPAGHKQMPWPEPQSPRVLPNGLAAKAQSLGPAEFQGASQRCLQLGACLQSSPPGASPPTGTNRHGMKAAKHGSEEARPQSCLVGSATGRPGGEGSPSPKTRESSLKRRLFRSMFLSTAATAPPSSSKPGPPPQSKPNSSFRPPQKDNPPSLVAKAQSLPSDQPVGTFSPLTTSDTSSPQKSLRTAPATGQLPGRSSPAGSPRTWHAQISTSNLYLPQDPTVAKGALAGEDTGVVTHEQFKAALRMVVDQGDPRLLLDSYVKIGEGSTGIVCLAREKHSGRQVAVKMMDLRKQQRRELLFNEVVIMRDYQHFNVVEMYKSYLVGEELWVLMEFLQGGALTDIVSQVRLNEEQIATVCEAVLQALAYLHAQGVIHRDIKSDSILLTLDGRVKLSDFGFCAQISKDVPKRKSLVGTPYWMAPEVISRSLYATEVDIWSLGIMVIEMVDGEPPYFSDSPVQAMKRLRDSPPPKLKNSHKVSPVLRDFLERMLVRDPQERATAQELLDHPFLLQTGLPECLVPLIQLYRKQTSTC
B2: Calcium-binding and coiled-coil domain-containing protein 2 (Homo sapiens), Q13137 (parent)
chain: MEETIKDPPTSAVLLDHCHFSQVIFNSVEKFYIPGGDVTCHYTFTQHFIPRRKDWIGIFRVGWKTTREYYTFMWVTLPIDLNNKSAKQQEVQFKAYYLPKDDEYYQFCYVDEDGVVRGASIPFQFRPENEEDILVVTTQGEVEEIEQHNKELCKENQELKDSCISLQKQNSDMQAELQKKQEELETLQSINKKLELKVKEQKDYWETELLQLKEQNQKMSSENEKMGIRVDQLQAQLSTQEKEMEKLVQGDQDKTEQLEQLKKENDHLFLSLTEQRKDQKKLEQTVEQMKQNETTAMKKQQELMDENFDLSKRLSENEIICNALQRQKERLEGENDLLKRENSRLLSYMGLDFNSLPYQVPTSDEGGARQNPGLAYGNPYSGIQESSSPSPLSIKKCPICKADDICDHTLEQQQMQPLCFNCPICDKIFPATEKQIFEDHVFCHSL
partner: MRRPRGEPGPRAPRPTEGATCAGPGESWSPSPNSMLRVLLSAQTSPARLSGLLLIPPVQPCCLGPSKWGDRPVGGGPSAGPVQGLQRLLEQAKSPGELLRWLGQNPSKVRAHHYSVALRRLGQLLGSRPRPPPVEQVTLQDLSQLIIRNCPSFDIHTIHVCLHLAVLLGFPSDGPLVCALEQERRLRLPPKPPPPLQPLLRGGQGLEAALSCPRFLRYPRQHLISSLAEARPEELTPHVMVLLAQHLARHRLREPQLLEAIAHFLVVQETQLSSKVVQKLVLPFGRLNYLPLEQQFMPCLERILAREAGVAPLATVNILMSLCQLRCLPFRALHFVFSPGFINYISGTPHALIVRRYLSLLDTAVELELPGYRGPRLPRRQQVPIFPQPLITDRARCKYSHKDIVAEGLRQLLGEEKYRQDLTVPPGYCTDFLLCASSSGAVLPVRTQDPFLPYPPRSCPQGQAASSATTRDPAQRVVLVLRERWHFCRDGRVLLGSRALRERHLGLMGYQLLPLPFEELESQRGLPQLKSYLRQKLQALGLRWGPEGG
B3: Translocator protein (Homo sapiens), P30536 (parent)
chain: MAPPWVPAMGFTLAPSLGCFVGSRFVHGEGLRWYAGLQKPSWHPPHWVLGPVWGTLYSAMGYGSYLVWKELGGFTEKAVVPLGLYTGQLALNWAWPPIFFGARQMGWALVDLLLVSGAAAATTVAWYQVSPLAARLLYPYLAWLAFTTTLNYCVWRDNHGWRGGRRLPE
partner: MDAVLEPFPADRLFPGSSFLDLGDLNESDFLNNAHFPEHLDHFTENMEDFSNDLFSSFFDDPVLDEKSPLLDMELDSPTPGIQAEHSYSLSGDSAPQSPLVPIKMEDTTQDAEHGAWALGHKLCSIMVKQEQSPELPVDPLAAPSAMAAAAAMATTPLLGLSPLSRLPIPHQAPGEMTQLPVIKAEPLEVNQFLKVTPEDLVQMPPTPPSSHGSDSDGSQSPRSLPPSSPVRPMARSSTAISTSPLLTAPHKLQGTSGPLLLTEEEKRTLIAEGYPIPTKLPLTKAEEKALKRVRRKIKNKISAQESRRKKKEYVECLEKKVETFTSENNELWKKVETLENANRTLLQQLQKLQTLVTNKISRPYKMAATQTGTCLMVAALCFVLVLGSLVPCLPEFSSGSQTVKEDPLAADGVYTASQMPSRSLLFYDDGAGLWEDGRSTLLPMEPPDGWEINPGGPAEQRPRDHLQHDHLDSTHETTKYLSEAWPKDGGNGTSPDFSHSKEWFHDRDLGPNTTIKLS
B4: Ras-related protein Rab-39B (Homo sapiens), Q96DA2 (parent)
chain: MEAIWLYQFRLIVIGDSTVGKSCLIRRFTEGRFAQVSDPTVGVDFFSRLVEIEPGKRIKLQIWDTAGQERFRSITRAYYRNSVGGLLLFDITNRRSFQNVHEWLEETKVHVQPYQIVFVLVGHKCDLDTQRQVTRHEAEKLAAAYGMKYIETSARDAINVEKAFTDLTRDIYELVKRGEITIQEGWEGVKSGFVPNVVHSSEEVVKSERRCLC
partner: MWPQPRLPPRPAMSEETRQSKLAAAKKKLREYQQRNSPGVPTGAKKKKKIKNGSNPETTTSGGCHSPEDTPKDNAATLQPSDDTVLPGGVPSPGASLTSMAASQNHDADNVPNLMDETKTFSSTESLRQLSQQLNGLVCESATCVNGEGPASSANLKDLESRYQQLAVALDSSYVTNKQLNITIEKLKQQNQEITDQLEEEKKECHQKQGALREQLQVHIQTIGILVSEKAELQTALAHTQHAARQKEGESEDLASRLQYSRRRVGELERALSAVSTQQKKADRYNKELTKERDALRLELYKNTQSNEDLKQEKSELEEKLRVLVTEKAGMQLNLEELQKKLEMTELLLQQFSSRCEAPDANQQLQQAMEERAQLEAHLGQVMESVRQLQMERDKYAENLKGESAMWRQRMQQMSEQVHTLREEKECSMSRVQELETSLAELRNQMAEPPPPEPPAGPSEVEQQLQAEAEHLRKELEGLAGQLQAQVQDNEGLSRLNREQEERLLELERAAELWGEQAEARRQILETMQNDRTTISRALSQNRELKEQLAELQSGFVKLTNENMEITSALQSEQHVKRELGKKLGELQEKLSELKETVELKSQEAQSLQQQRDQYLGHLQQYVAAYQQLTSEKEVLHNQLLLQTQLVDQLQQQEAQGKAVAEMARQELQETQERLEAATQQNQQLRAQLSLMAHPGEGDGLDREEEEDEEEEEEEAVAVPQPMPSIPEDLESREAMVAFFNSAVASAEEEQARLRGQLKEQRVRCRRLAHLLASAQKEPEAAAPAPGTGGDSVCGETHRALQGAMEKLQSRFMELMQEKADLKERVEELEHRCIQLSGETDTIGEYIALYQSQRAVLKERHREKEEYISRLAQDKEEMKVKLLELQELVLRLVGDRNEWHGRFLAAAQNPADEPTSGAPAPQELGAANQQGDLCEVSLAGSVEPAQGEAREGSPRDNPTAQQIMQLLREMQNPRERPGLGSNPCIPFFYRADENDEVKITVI
B5: Four and a half LIM domains protein 2 (Homo sapiens), Q14192 (parent)
chain: MTERFDCHHCNESLFGKKYILREESPYCVVCFETLFANTCEECGKPIGCDCKDLSYKDRHWHEACFHCSQCRNSLVDKPFAAKEDQLLCTDCYSNEYSSKCQECKKTIMPGTRKMEYKGSSWHETCFICHRCQQPIGTKSFIPKDNQNFCVPCYEKQHAMQCVQCKKPITTGGVTYREQPWHKECFVCTACRKQLSGQRFTARDDFAYCLNCFCDLYAKKCAGCTNPISGLGGTKYISFEERQWHNDCFNCKKCSLSLVGRGFLTERDDILCPDCGKDI
partner: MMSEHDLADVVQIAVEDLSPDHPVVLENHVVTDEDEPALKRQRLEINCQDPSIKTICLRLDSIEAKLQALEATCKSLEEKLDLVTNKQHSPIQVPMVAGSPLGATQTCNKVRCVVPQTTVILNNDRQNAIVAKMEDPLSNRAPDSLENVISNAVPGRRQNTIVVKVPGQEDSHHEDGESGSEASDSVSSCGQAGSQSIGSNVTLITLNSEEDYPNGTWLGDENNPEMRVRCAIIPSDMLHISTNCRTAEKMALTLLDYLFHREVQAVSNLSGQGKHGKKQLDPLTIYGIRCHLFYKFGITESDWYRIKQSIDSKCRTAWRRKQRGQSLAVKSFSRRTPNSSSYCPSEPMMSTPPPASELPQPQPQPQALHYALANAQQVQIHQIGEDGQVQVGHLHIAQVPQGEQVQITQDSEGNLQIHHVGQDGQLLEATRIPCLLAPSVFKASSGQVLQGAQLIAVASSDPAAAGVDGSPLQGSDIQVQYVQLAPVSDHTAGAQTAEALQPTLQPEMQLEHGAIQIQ

Variants of: B1
Conditions: with rhoj_human RHOJ

Row | effect of a mutation on the interaction | Variant
1 | with no effect | H215R
2 | with no effect | V54M

Variants of: B2
Conditions: with fastk_human FASTK

Row | effect of a mutation on the interaction | Variant
3 | with no effect | V248A

Variants of: B3
Conditions: with cr3l1_human CREB3L1, Q96BA8

Row | effect of a mutation on the interaction | Variant
4 | disrupting interaction strength | A119V

Variants of: B4
Conditions: with goga2_human GOLGA2, Q08379

Row | effect of a mutation on the interaction | Variant
5 | with no effect | R177S

Variants of: B5
Conditions: with banp_human BANP

Row | effect of a mutation on the interaction | Variant
6 | with no effect | R177Q
